Columns and labels:
Settings in all cases: remark: other sources report otherwise
[1] = molecular target: MHC class 1 allele A*02:01; test: REVEAL kinetic score, HLA-A*02:01
[2] = molecular target: MHC class 1 allele A*02:01; test: REVEAL peptide-MHC binding assay, HLA-A*02:01
[3] = molecular target: MHC class 1 allele A*02:01; test: REVEAL R-score, HLA-A*02:01
[4] = molecular target: MHC class 1 allele A*02:01; test: REVEAL on-rate assay, HLA-A*02:01
[5] = molecular target: MHC class 1 allele A*02:01; test: REVEAL off-rate assay, HLA-A*02:01

B1: SurA24 (survivin peptide antigen HLA-A24, …) (peptide)
peptide: STFKNWPFL
Kinetic score [1]: 0
REVEAL score [2]: 61.9
R-score [3]: 0
On-rate T1/2 [4]: 31.5 h
Off-rate T1/2 [5]: 7.2 min
